# Laboratory results reported in PMC2661055, “The C-terminal sequence of the large hepatitis delta antigen is variable but retains the ability to bind clathrin” (Virology Journal, 2009).
# B1: 6XHis-CHC_((1–107)) (hexahistidine-tagged fragment, amino acids 1 to 107, of human clathrin heavy chain) (domain or fragment, UniProt Q00610 1-107, looked up)
# chain: MAQILPIRFQEHLQLQNLGINPANIGFSTLTMESDKFICIREKVGEQAQVVIIDMNDPSNPIRRPISADSAIMNPASKVIALKAGKTLQIFNIEMKSKMKAHTMTDD
# notes: human clathrin heavy chain, amino acids 1 to 107, cDNA amplified by RT-PCR and inserted downstream of the hexahistidine tag of pET-15b; also called fragment of CHC; 107-amino-acid peptide of CHC; source: E. coli BL21 (DE3), purified (nickel beads); not shown: His6, N-terminal, kept
# B2: clathrin heavy chain (full-length, endogenous in HuH-7 cells) (natural protein, human (endogenous in HuH-7), UniProt Q00610 1-1675, looked up)
# chain: MAQILPIRFQEHLQLQNLGINPANIGFSTLTMESDKFICIREKVGEQAQVVIIDMNDPSNPIRRPISADSAIMNPASKVIALKAGKTLQIFNIEMKSKMKAHTMTDDVTFWKWISLNTVALVTDNAVYHWSMEGESQPVKMFDRHSSLAGCQIINYRTDAKQKWLLLTGISAQQNRVVGAMQLYSVDRKVSQPIEGHAASFAQFKMEGNAEESTLFCFAVRGQAGGKLHIIEVGTPPTGNQPFPKKAVDVFFPPEAQNDFPVAMQISEKHDVVFLITKYGYIHLYDLETGTCIYMNRISGETIFVTAPHEATAGIIGVNRKGQVLSVCVEEENIIPYITNVLQNPDLALRMAVRNNLAGAEELFARKFNALFAQGNYSEAAKVAANAPKGILRTPDTIRRFQSVPAQPGQTSPLLQYFGILLDQGQLNKYESLELCRPVLQQGRKQLLEKWLKEDKLECSEELGDLVKSVDPTLALSVYLRANVPNKVIQCFAETGQVQKIVLYAKKVGYTPDWIFLLRNVMRISPDQGQQFAQMLVQDEEPLADITQIVDVFMEYNLIQQCTAFLLDALKNNRPSEGPLQTRLLEMNLMHAPQVADAILGNQMFTHYDRAHIAQLCEKAGLLQRALEHFTDLYDIKRAVVHTHLLNPEWLVNYFGSLSVEDSLECLRAMLSANIRQNLQICVQVASKYHEQLSTQSLIELFESFKSFEGLFYFLGSIVNFSQDPDVHFKYIQAACKTGQIKEVERICRESNCYDPERVKNFLKEAKLTDQLPLIIVCDRFDFVHDLVLYLYRNNLQKYIEIYVQKVNPSRLPVVIGGLLDVDCSEDVIKNLILVVRGQFSTDELVAEVEKRNRLKLLLPWLEARIHEGCEEPATHNALAKIYIDSNNNPERFLRENPYYDSRVVGKYCEKRDPHLACVAYERGQCDLELINVCNENSLFKSLSRYLVRRKDPELWGSVLLESNPYRRPLIDQVVQTALSETQDPEEVSVTVKAFMTADLPNELIELLEKIVLDNSVFSEHRNLQNLLILTAIKADRTRVMEYINRLDNYDAPDIANIAISNELFEEAFAIFRKFDVNTSAVQVLIEHIGNLDRAYEFAERCNEPAVWSQLAKAQLQKGMVKEAIDSYIKADDPSSYMEVVQAANTSGNWEELVKYLQMARKKARESYVETELIFALAKTNRLAELEEFINGPNNAHIQQVGDRCYDEKMYDAAKLLYNNVSNFGRLASTLVHLGEYQAAVDGARKANSTRTWKEVCFACVDGKEFRLAQMCGLHIVVHADELEELINYYQDRGYFEELITMLEAALGLERAHMGMFTELAILYSKFKPQKMREHLELFWSRVNIPKVLRAAEQAHLWAELVFLYDKYEEYDNAIITMMNHPTDAWKEGQFKDIITKVANVELYYRAIQFYLEFKPLLLNDLLMVLSPRLDHTRAVNYFSKVKQLPLVKPYLRSVQNHNNKSVNESLNNLFITEEDYQALRTSIDAYDNFDNISLAQRLEKHELIEFRRIAAYLFKGNNRWKQSVELCKKDSLYKDAMQYASESKDTELAEELLQWFLQEEKRECFGACLFTCYDLLRPDVVLETAWRHNIMDFAMPYFIQVMKEYLTKVDKLDASESLRKEEEQATETQPIVYGQPQLMLTAGPSVAVPPQAPFGYGYTAPPYGQPQPGFGYSM
# notes: clathrin heavy chain, endogenous in the human hepatoma cell line HuH-7, detected with anti-clathrin heavy chain; also called CHC; source: endogenous, HuH-7 lysate
# B3: GST-LDIII_(C(198–210)) (GST fused to amino acids 198-210 of genotype III LDAg) (domain or fragment)
# chain: FTPPPPGYYWVPG
# notes: amino acids 198-210 of the large delta antigen of HDV genotype III, Peru-1 strain, GenBank L22063; Inserted downstream of GST in pGEX-4T1 by EcoRI and SalI; also called 13-amino-acid peptide of genotype III LDAg; source: E. coli BL21 (DE3), purified (glutathione beads); not shown: GST, N-terminal, kept
# Tests used:
# [1] = biological target: EGFP-LDII (EGFP fused to full-length large hepatitis delta antigen of HDV genotype II, Taiwan-3 strain) (hepatitis delta virus genotype II (Taiwan-3 strain)); assay: co-IP; HuH-7 cells transfected with pEGFP-C3 or pEGFP-LD plasmids, TNF-α (30 ng/ml) for 2 h at 24 h post-transfection; lysate precipitated with anti-GFP, blot for CHC; CHC normalised to actin, genotype I set to 1, mean of three experiments
# [2] = biological target: EGFP-LDIII (EGFP fused to full-length large hepatitis delta antigen of HDV genotype III, Peru-1 strain) (hepatitis delta virus genotype III (Peru-1 strain)); assay: as above
# [3] = biological target: T1, GST-LDII_(C(198–210)) (GST fused to amino acids 198-210 of genotype II LDAg) (hepatitis delta virus genotype II …); assay: pull-down; GST or GST-LD_(C(198–210)) on Glutathione Sepharose 4B beads incubated with E. coli produced, purified 6XHis-CHC_((1–107)) for 16 h at 4°C; three washes with 0.05% Tween-20 in PBS; SDS-PAGE, silver stain; mean of three experiments; conditions: both partners purified
# T1 construct: amino acids 198-210 of the large delta antigen of HDV genotype II, Taiwan-3 strain, GenBank U19598; Inserted downstream of GST in pGEX-4T1 by EcoRI and SalI; also called 13-amino-acid peptide of genotype II LDAg; source: E. coli BL21 (DE3), purified (glutathione beads); not shown: GST, N-terminal, kept
# T1 chain: GPSPPQQRLPLLE
# [4] = biological target: B3; assay: as above; conditions: both partners purified
# [5] = biological target: T1, GST-LDII_(C(198–210)) (GST fused to …); assay: pull-down; GST or GST-LD_(C(198–210)) on Glutathione Sepharose 4B beads incubated with HuH-7 cell lysate for 16 h at 4°C; three washes with 0.05% Tween-20 in PBS; blot for CHC; mean of three experiments; conditions: one partner purified
# [6] = biological target: B3; assay: as above; conditions: one partner purified
# [7] = biological target: B1; assay: pull-down; GST or GST-LD_(C(198–210)) on Glutathione Sepharose 4B beads incubated with E. coli produced, purified 6XHis-CHC_((1–107)) for 16 h at 4°C; three washes with 0.05% Tween-20 in PBS; SDS-PAGE, silver stain; mean of three experiments; conditions: both partners purified
molecule,measurement,setting,value
"clathrin heavy chain (full-length, endogenous in HuH-7 cells) (from UniProt Q00610 1-1675) (natural protein)","amount of CHC co-precipitated, ratio to EGFP-LDI (fold of EGFP-LDI)",[1],2.6
same,"amount of CHC co-precipitated, ratio to EGFP-LDI (fold of EGFP-LDI)",[2],2.2
B1,"amount of CHC fragment pulled down, ratio to GST-LDI_(C(198–210))",[3],1.4 fold of GST-LDI_(C(198–210))
same,"amount of CHC fragment pulled down, ratio to GST-LDI_(C(198–210))",[4],0.7 fold of GST-LDI_(C(198–210))
B2,"normalized amount of CHC bound, ratio to genotype I",[5],1.6 fold of genotype I
same,"normalized amount of CHC bound, ratio to genotype I",[6],1.3 fold of genotype I
B3,binding result,[7],binds
